The results in this text go back to the RNAGym collection of RNA variant scans (doi:10.7554/elife.90254).

The labels stand for the following.
B1: LINE1-full (parent)
chain: UACGUAGGUGGUUUUCCCCUGAUAGUGCUAAGGGGGCCUGGAAGUUUGGACUGGGCAGAGCUCAACACAGCGUGGCAAAGUGGCUGUGGCUAGACUGCCUCUCUGGAUUCCUCGUCACUCAGCAGGGCAUCUCUGAGAGAAAUGCC

This series covers variants of B1. Briefly: self-cleavage, relative activity (ratio to wild type); higher = more cleavage; in vitro, sequencing; the parent is a self-cleaving ribozyme.
For the variant U20A U100C, the self-cleavage came to 1.49. In the case of U20A U100A it was 0.78. In the case of U20A A79U it was 1.59. The value for U20C A50U was 1.32.

In the case of C19U A24U, the self-cleavage was found to be 1.

For A22C U115A, the self-cleavage is 1.46. The value for U20C C113U was 1.62. In the case of C19U U119C it was 1.38; in that of C19U A64G, 0.25. The value for G21U A92G was 0.1. For G21U A42U, the self-cleavage was determined as 1.03. In the case of G21U A42G it was 0.8; in that of U20G U104A, 1.29.

For U20A U26A, the self-cleavage was 1.23.

Consider G21U U134A, for which the self-cleavage amounted to 1.27. In the case of C19U U29C it was 1.37; in that of U20C C146U, 1.27; in that of G21A U115C, 2.12. The value for G21A U115G was 0.96; that for G21A A65C was 0.02; that for G21U U73C was 2.04. Regarding C19U A79U, the self-cleavage was 1.47.

For C19U A79G, the self-cleavage was 0.97.

Turning to U20G U96G, the self-cleavage worked out at 0. The value for U20G C61U was 0.09. The value for A22C U46A was 2.21; that for C19U U134C was 1.09. The value for C19U U134A was 0.81; that for C19U A136U was 1.41. As for C19G A31G, the self-cleavage stood at 0.73. In the case of G21A G114A it was 2.07; in that of U20A G137U, 0.85.

On to U20C U132C, for which the self-cleavage turned out to be 1.23. The value for U20C U132A was 1.63.

U20A U81C: the self-cleavage was found to be 0.84.

C19U A42C: the self-cleavage is 0.69. The value for C19U G40A was 1. In the case of C19U U132C it was 0; in that of U20C A24U, 1.37; in that of U20C A24G, 1.11.

Regarding C19U A77G, the self-cleavage was 1.68. In the case of C19U A78G it was 1.24; in that of G21A G137A, 1.21; in that of C19U U87C, 0.06. The value for C19U U87A was 0.09. The value for U20C G25A was 0.84; that for C19U A59G was 0.03; that for A22G A30G was 0.86. Consider U20A G58C, for which the self-cleavage was found to be 0.08.

As to U20C C116A, the self-cleavage is 1.5.

For the variant G21U U47C, the self-cleavage came to 0.72.

As for U20C A94U, the self-cleavage was found to be 0.28.

Consider U20C A94G, for which the self-cleavage is 0.39. With U20C A92G, the self-cleavage is 0.08.

On to U20C A92U, for which the self-cleavage amounted to 0.72. Take U20A G35C: the self-cleavage was determined as 1.12. In the case of U20A G139A it was 0.53. The value for U20C G54A was 0.65. In the case of C19U C123U it was 1.58; in that of G21A A141G, 1.16. Turning to U20G A42G, the self-cleavage is 0.67.

Take G21A: the self-cleavage was 1.14. In the case of G21C it was 0.69. In the case of G21U, the self-cleavage turned out to be 1.1. In the case of U20A G33U it was 0.66. With U20G U115C, the self-cleavage is 1.95. In the case of U20G G74A it was 1.29. The value for C19U A22U was 1.11; that for A22C U143C was 1.41.

Turning to C19G A78G, the self-cleavage is 1.24. In the case of C19U A31U it was 1.35; in that of U20C U23A, 1.81; in that of U20C U23C, 1.2. As for U20C C128U, the self-cleavage worked out at 1.24. In the case of U20C A65U it was 0.14; in that of U20A A138G, 1.27; in that of U20C C118U, 1.2.

Regarding U20C C118G, the self-cleavage came to 1.45. On to U20A C120U, for which the self-cleavage is 1.32. For U20A A94G, the self-cleavage was determined as 0.18.

With C19G A43G, the self-cleavage turned out to be 0.31.

Consider U20A A64U, for which the self-cleavage was found to be 0.36.

As to G21C U109C, the self-cleavage was 1.18. Turning to A22C U102C, the self-cleavage stood at 1.55. The value for U20C C131U was 1.18; that for U20A U23C was 0.83. In the case of U20C G126A it was 1.8; in that of G21U A94U, 0.39; in that of U20C G72U, 0.9. On to A22C U39C, for which the self-cleavage is 2.06. As for A22C A50U, the self-cleavage amounted to 1.02.

Regarding C19U U108C, the self-cleavage was determined as 1.26.

Regarding C19U U52G, the self-cleavage came to 0.5. On to C19U U52A, for which the self-cleavage was determined as 1.28. In the case of U20C U46C it was 1.5; in that of U20C U45C, 1.19; in that of U20C U45G, 1.38. U20C U45A: the self-cleavage is 1.2. The value for C19U U81C was 1; that for U20C U112A was 0.61.

In the case of U20C U112C, the self-cleavage came to 1.4. The value for G21U G127A was 1.99; that for U20C U130C was 1.77.

Regarding U20C U130G, the self-cleavage worked out at 1.63. Consider U20C U130A, for which the self-cleavage turned out to be 1.65.

Consider U20C G44U, for which the self-cleavage came out at 1.06. Consider U20C C110A, for which the self-cleavage is 0.41. In the case of C19G U85C, the self-cleavage was found to be 0.24.

Regarding U20A G53A, the self-cleavage was found to be 1.01. In the case of C19U G48A it was 0.72. In the case of U20G U102C it was 1.73; in that of U20G A107G, 0.72. For the variant C19U A138U, the self-cleavage worked out at 1.24. As for C19U A138G, the self-cleavage came to 1.01. The value for C19U G58U was 0.09; that for U20C G75A was 1.16; that for G21A U52A was 1.76. The value for C19U U26C was 1.32.

Consider C19U U26A, for which the self-cleavage worked out at 0.95. In the case of U20G A136G it was 1.03; in that of U20G U134C, 0.64.

Consider U20G U109G, for which the self-cleavage came out at 0.43. As to U20G U109C, the self-cleavage was found to be 0.93. The value for U20A A107G was 1.37; that for U20G A64U was 0.71; that for U20A A124U was 0.91. As to U20A A124G, the self-cleavage amounted to 0.76.

Take U20A U112A: the self-cleavage came to 1.82.

Regarding U20C U143C, the self-cleavage turned out to be 1.29. In the case of U20C G36A it was 1.23.

As for G21U G35A, the self-cleavage was determined as 1.36. In the case of U20C A121U it was 1.44; in that of A22C U81C, 1.04; in that of C19U A117G, 1.49. In the case of C19U U23C it was 0.79; in that of C19U U23A, 1.1; in that of G21A U62C, 0.05.

For the variant A22C A30G, the self-cleavage was found to be 1.18. Regarding U20G U132C, the self-cleavage was determined as 1.4. The value for U20C U119C was 1.35; that for U20A G135U was 0.43; that for C19U G36C was 0.82. In the case of G21A A67C it was 0.02. The value for U20C A136U was 1.51; that for U20A A69G was 0.45. C19U A67G: the self-cleavage was 0.

For C19G A117U, the self-cleavage turned out to be 1.69.

As to G21C U132C, the self-cleavage was 1.27. In the case of U20A U87C it was 0.31; in that of U20A U87G, 0.21.

Turning to U20A U87A, the self-cleavage turned out to be 0.11. The value for C19G C56U was 0.22; that for G21U A136G was 1.84.

As to U20C U52G, the self-cleavage was 1.81. In the case of U20C U52C it was 1.76; in that of C19U G105U, 1.55.

Regarding U20G A69U, the self-cleavage stood at 0. For the variant U20A G41C, the self-cleavage came out at 0.73. In the case of U20A G41U it was 0.96; in that of U20C A141G, 1.54; in that of U20C A141U, 1.36. In the case of U20A C38U it was 0.87. In the case of U20A U39A it was 0.84. For G21A G135A, the self-cleavage was determined as 1.22. The value for C19U A94U was 0.14. The value for C19U A94G was 0.29; that for U20C G114A was 1.57.
